Measured values reported in doi:10.1101/382838.

Molecular target: C. elegans PGL-3 N-terminal dimerization domain (NtDD), wild type (C. elegans)
Assay: SEC-MALS

Substance: C. elegans PGL-3 N-terminal dimerization domain (NtDD), wild type (domain or fragment)
- stoichiometry N: 2
